Assay results taken from EP4810515A1 (Shanghai Haiju Biological Technology Co., Ltd., dated 2026).
Numbering of substitutions follows the chain as printed. Blank lines part the entries; values can stand above or below the binder they belong to.

What was measured:
[1] = biological target: T1, GDF15 protein (R&D, 8146-GD) (UniProt Q99988 197-308); assay: SPR Biacore T200, antibody captured by anti-hFc on CM5, GDF15 as analyte, 1:1 model
T1 construct: analyte of the SPR assay
T1 sequence (looked up): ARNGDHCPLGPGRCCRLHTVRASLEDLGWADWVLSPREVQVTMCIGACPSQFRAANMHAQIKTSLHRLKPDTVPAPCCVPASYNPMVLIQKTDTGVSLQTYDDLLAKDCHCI

[2] = biological target: T2, human GDF15 recombinant protein (ACRO, GD5-H5149) (human, UniProt Q99988 197-308); assay: cell-based or functional assay
T2 sequence (looked up): T1 sequence (looked up)

- Kd [1]: 0.0134 nM
- koff [1]: 0.000192 s⁻¹
- kon [1]: 1.43e+07 M⁻¹ s⁻¹
- IC50, reporter gene cell strain (GFRAL/RET) [2]: 0.08 nM
B1: G2-H1-hz2-hIgG1(LALAGA, -K) (antibody, V domains shown)
VH: QVQLQESGPGLVKPSETLSLTCTFSGFSLSTYGIGVGWIRQPPGKGLEWIAHIWWNNNKYFNTALKSRLTISKDTSKNQVSLKLSSVTAADTAVYYCARMGYDIMDYWGQGTLVTVSS
VL: DIVMTQSPSSLSTSVGDRVTITCKASQDVNTAVAWYQQKPGKSPKFLIYSSSYRYTGVPDRFSGSGSGTDFTFTISSVQPEDFAVYYCQQHYSTPWTFGGGTKVEIKR
notes: humanized from G2-CH1

- Kd [1]: 0.0211 nM
- koff [1]: 0.000297 s⁻¹
- kon [1]: 1.41e+07 M⁻¹ s⁻¹
- IC50, reporter gene cell strain (GFRAL/RET) [2]: 0.062 nM
B2: G2-H1-hz13-hIgG1(LALAGA, -K) (antibody, V domains shown)
VH: QVTLLESGGGLVQPGGSLRLSCSFSGFSLSTYGIGVGWIRQAPGKGLEWLAHIWWNNNKYFNTALKSRLTISKDTSKNTVYLQMNSVRAEDTAVYYCARMGYDIMDYWGQGTTVTVSS
VL: B1 VL with V3Q, S43A, V78L, G100Q
notes: humanized from G2-CH1

- Kd [1]: 0.0178 nM
- koff [1]: 0.000273 s⁻¹
- kon [1]: 1.53e+07 M⁻¹ s⁻¹
- IC50, reporter gene cell strain (GFRAL/RET) [2]: 0.062 nM
B3: G2-H1-hz8-hIgG1(LALAGA, -K) (antibody, V domains shown)
VH: B1 VH with Q3T, T23S, I50L, V94T, L113S
VL: B1 VL with S9A, S10T, V15P, D17E, T22S, K42Q, K45R, P80S
notes: humanized from G2-CH1

- Kd [1]: 0.0107 nM
- koff [1]: 0.00015 s⁻¹
- kon [1]: 1.4e+07 M⁻¹ s⁻¹
- IC50, reporter gene cell strain (GFRAL/RET) [2]: 0.085 nM
B4: G2-H1-hz14-hIgG1(LALAGA, -K) (antibody, V domains shown)
VH: B2 VH
VL: B1 VL
notes: humanized from G2-CH1

- Kd [1]: 0.0105 nM
- koff [1]: 0.000146 s⁻¹
- kon [1]: 1.39e+07 M⁻¹ s⁻¹
- IC50, reporter gene cell strain (GFRAL/RET) [2]: 0.063 nM
B5: G2-H1-hz1-hIgG1(LALAGA, -K) (antibody, V domains shown)
VH: B1 VH
VL: B1 VL with V3Q, S43A, V78L, G100Q
notes: humanized from G2-CH1

- Kd [1]: 0.00993 nM
- koff [1]: 0.000183 s⁻¹
- kon [1]: 1.84e+07 M⁻¹ s⁻¹
- IC50, reporter gene cell strain (GFRAL/RET) [2]: 0.071 nM
B6: G2-H1-hz4-hIgG1(LALAGA, -K) (antibody, V domains shown)
VH: B1 VH
VL: B1 VL with S9A, S10T, V15P, D17E, T22S, K42Q, K45R, P80S
notes: humanized from G2-CH1

- Kd [1]: 0.0151 nM
- koff [1]: 0.000221 s⁻¹
- kon [1]: 1.46e+07 M⁻¹ s⁻¹
- IC50, reporter gene cell strain (GFRAL/RET) [2]: 0.073 nM
B7: G2-H1-hz6-hIgG1(LALAGA, -K) (antibody, V domains shown)
VH: B1 VH with Q3T, T23S, I50L, V94T, L113S
VL: B1 VL
notes: humanized from G2-CH1

- Kd [1]: 0.022 nM
- koff [1]: 0.00017 s⁻¹
- kon [1]: 7.75e+06 M⁻¹ s⁻¹
- IC50, reporter gene cell strain (GFRAL/RET) [2]: 0.069 nM
B8: G2-H8-H1L1-hIgG1(LALAGA,-K)(gsm) (antibody, V domains shown)
VH: QITLKESGPTLVKPTQTLTLTCTFSGFSLSTYGIGVGWIRQPPGKALEWLAHIWWNDNKYYNTALKSRLTITKDTSKNQVVLTMTNMDPVDTATYYCARLAYDYVDSWGQGTLVTVSS
VL: DIVMTQTPLSLSVTPGQPASISCKSSKSLLHSEGITYLYWYLQKPGQSPQLLIYQMSNLVSGVPDRFSGSGSGTDFTLKISRVEAEDVGVYYCAQNLELPPTFGQGTKLEIKR
notes: humanized from G2-CH8-LP3; also called G2-H8-H1L1-hIgG1(gsm); G2-H8-H1L1-hIgG1 (gsm)(LALAGA,-K)

- Kd [1]: 0.0143 nM
- koff [1]: 0.000127 s⁻¹
- kon [1]: 8.9e+06 M⁻¹ s⁻¹
- IC50, reporter gene cell strain (GFRAL/RET) [2]: 0.053 nM
B9: G2-H8-H2L2-hIgG1(LALAGA,-K) (antibody, V domains shown)
VH: B8 VH with I2V, T10A, A46G, T72S, L113T, V114L
VL: B8 VL with K24R, G69S
notes: humanized from G2-CH8-LP3

- Kd [1]: 0.0178 nM
- koff [1]: 0.000145 s⁻¹
- kon [1]: 8.11e+06 M⁻¹ s⁻¹
- IC50, reporter gene cell strain (GFRAL/RET) [2]: 0.049 nM
B10: G2-H5-H2.2L2-hIgG1(LALAGA,-K) (antibody, V domains shown)
VH: EVQLVQSGAEVKKPGASVKVSCKASGYTFTDYNLNWVRQATGQGLEWMGDLNPYNQGIIYNQKFKGRVTLTVDKSISTAYMELSSLRSEDTAVYYCAREGRGGAWFDSWGQGTLVTVSS
VL: DIQMTQSPSSLSASVGDRVTITCKASEDIYHRLAWYQQKPGKAPKLLIYGATSLETGVPSRFSGSGSGTDYTFTISSLQPEDIATYYCQQYWSPPFTFGGGTKVEIKR
notes: humanized from G2-CH5-HP2

- Kd [1]: 0.0245 nM
- koff [1]: 0.000173 s⁻¹
- kon [1]: 7.03e+06 M⁻¹ s⁻¹
- IC50, reporter gene cell strain (GFRAL/RET) [2]: 0.068 nM
B11: G2-H5-H3.2L1-hIgG1(LALAGA,-K) (antibody, V domains shown)
VH: B10 VH with M48I, V68A
VL: B10 VL with Y71F
notes: humanized from G2-CH5-HP2

- Kd [1]: 0.0273 nM
- koff [1]: 0.000239 s⁻¹
- kon [1]: 8.75e+06 M⁻¹ s⁻¹
- IC50, reporter gene cell strain (GFRAL/RET) [2]: 0.059 nM
B12: G2-H5-H4.2L2-hIgG1(LALAGA,-K) (antibody, V domains shown)
VH: B10 VH with F29L, M48I, V68A, D73N
VL: B10 VL
notes: humanized from G2-CH5-HP2

- Kd [1]: 0.0145 nM
- koff [1]: 0.000134 s⁻¹
- kon [1]: 9.19e+06 M⁻¹ s⁻¹
- IC50, reporter gene cell strain (GFRAL/RET) [2]: 0.046 nM
B13: G2-H5-H1.2L2-hIgG1(LALAGA,-K) (antibody, V domains shown)
VH: B10 VH with L70M, K74T
VL: B10 VL
notes: humanized from G2-CH5-HP2

- Kd [1]: 0.0349 nM
- koff [1]: 0.00026 s⁻¹
- kon [1]: 7.44e+06 M⁻¹ s⁻¹
- IC50, reporter gene cell strain (GFRAL/RET) [2]: 0.081 nM
B14: G2-H5-H4.2L4-hIgG1(LALAGA,-K) (antibody, V domains shown)
VH: B10 VH with F29L, M48I, V68A, D73N
VL: B10 VL with Y49S, V58I
notes: humanized from G2-CH5-HP2

- Kd [1]: 0.0442 nM
- koff [1]: 0.000278 s⁻¹
- kon [1]: 6.28e+06 M⁻¹ s⁻¹
- IC50, reporter gene cell strain (GFRAL/RET) [2]: 0.087 nM
B15: G2-H5-H4.2L1-hIgG1(LALAGA,-K) (antibody, V domains shown)
VH: B10 VH with F29L, M48I, V68A, D73N
VL: B10 VL with Y71F
notes: humanized from G2-CH5-HP2

- Kd [1]: 0.0241 nM
- koff [1]: 0.000201 s⁻¹
- kon [1]: 8.36e+06 M⁻¹ s⁻¹
- IC50, reporter gene cell strain (GFRAL/RET) [2]: 0.053 nM
B16: G2-H5-H1.2L4-hIgG1(LALAGA,-K) (antibody, V domains shown)
VH: B10 VH with L70M, K74T
VL: B10 VL with Y49S, V58I
notes: humanized from G2-CH5-HP2

- Kd [1]: 0.0197 nM
- koff [1]: 0.000185 s⁻¹
- kon [1]: 9.37e+06 M⁻¹ s⁻¹
- IC50, reporter gene cell strain (GFRAL/RET) [2]: 0.069 nM
B17: G2-H5-H1.2L3-hIgG1(LALAGA,-K) (antibody, V domains shown)
VH: B10 VH with L70M, K74T
VL: B10 VL with Y49S
notes: humanized from G2-CH5-HP2

- Kd [1]: 0.021 nM
- koff [1]: 0.000231 s⁻¹
- kon [1]: 1.1e+07 M⁻¹ s⁻¹
- IC50, reporter gene cell strain (GFRAL/RET) [2]: 0.048 nM
B18: G2-H5-H2.2L4-hIgG1(LALAGA,-K) (antibody, V domains shown)
VH: B10 VH
VL: B10 VL with Y49S, V58I
notes: humanized from G2-CH5-HP2

- Kd [1]: 0.0327 nM
- koff [1]: 0.000265 s⁻¹
- kon [1]: 8.1e+06 M⁻¹ s⁻¹
- IC50, reporter gene cell strain (GFRAL/RET) [2]: 0.041 nM
B19: G2-H5-H3.2L2-hIgG1(LALAGA,-K) (antibody, V domains shown)
VH: B10 VH with M48I, V68A
VL: B10 VL
notes: humanized from G2-CH5-HP2

- Kd [1]: 0.0339 nM
- koff [1]: 0.000359 s⁻¹
- kon [1]: 1.06e+07 M⁻¹ s⁻¹
- IC50, reporter gene cell strain (GFRAL/RET) [2]: 0.064 nM
B20: G2-H5-H3.2L3-hIgG1(LALAGA,-K) (antibody, V domains shown)
VH: B10 VH with M48I, V68A
VL: B10 VL with Y49S
notes: humanized from G2-CH5-HP2

- Kd [1]: 0.0251 nM
- koff [1]: 0.000193 s⁻¹
- kon [1]: 7.68e+06 M⁻¹ s⁻¹
- IC50, reporter gene cell strain (GFRAL/RET) [2]: 0.049 nM
B21: G2-H5-H4.2L3-hIgG1(LALAGA,-K) (antibody, V domains shown)
VH: B10 VH with F29L, M48I, V68A, D73N
VL: B10 VL with Y49S
notes: humanized from G2-CH5-HP2

- Kd [1]: 0.0336 nM
- koff [1]: 0.000284 s⁻¹
- kon [1]: 8.46e+06 M⁻¹ s⁻¹
- IC50, reporter gene cell strain (GFRAL/RET) [2]: 0.048 nM
B22: G2-H5-H2.2L3-hIgG1(LALAGA,-K) (antibody, V domains shown)
VH: B10 VH
VL: B10 VL with Y49S
notes: humanized from G2-CH5-HP2

- Kd [1]: 0.0229 nM
- koff [1]: 0.000189 s⁻¹
- kon [1]: 8.26e+06 M⁻¹ s⁻¹
- IC50, reporter gene cell strain (GFRAL/RET) [2]: 0.055 nM
B23: G2-H5-H2.2L1-hIgG1(LALAGA, -K) (antibody, V domains shown)
VH: B10 VH
VL: B10 VL with Y71F
notes: humanized from G2-CH5-HP2

- Kd [1]: 0.0221 nM
- koff [1]: 0.000175 s⁻¹
- kon [1]: 7.9e+06 M⁻¹ s⁻¹
- IC50, reporter gene cell strain (GFRAL/RET) [2]: 0.039 nM
B24: G2-H5-H3.2L4-hIgG1(LALAGA,-K) (antibody, V domains shown)
VH: B10 VH with M48I, V68A
VL: B10 VL with Y49S, V58I
notes: humanized from G2-CH5-HP2

- Kd [1]: 0.0244 nM
- koff [1]: 0.000169 s⁻¹
- kon [1]: 6.94e+06 M⁻¹ s⁻¹
- IC50, reporter gene cell strain (GFRAL/RET) [2]: 0.036 nM
B25: G2-H5-H1.2L1-hIgG1(LALAGA,-K) (antibody, V domains shown)
VH: B10 VH with L70M, K74T
VL: B10 VL with Y71F
notes: humanized from G2-CH5-HP2

- Kd [1]: 0.00923 nM
- koff [1]: 0.000115 s⁻¹
- kon [1]: 1.25e+07 M⁻¹ s⁻¹
- IC50, reporter gene cell strain (GFRAL/RET) [2]: 0.077 nM
B26: G2-H1-hz15-hIgG1(LALAGA, -K) (antibody, V domains shown)
VH: B2 VH
VL: DIVMTQSPATLSTSPGERATLSCKASQDVNTAVAWYQQKPGQAPRFLIYSSSYRYTGVPARFSGSGSGTEFTFTISSLQSEDFAVYYCQQHYSTPWTFGGGTKVEIKR
notes: humanized from G2-CH1
